In patent publication US20210332115A1 (Sanofi, published 2021):
Substitutions are numbered along the chain they refer to.

B1: VH7/Vκ7 (antibody, V domains shown)
VH: EVQLVESGGGLVKPGGSLRLSCAASGFTFSNYAMSWVRQTPEKRLEWVATISNRGSYTYYPDSVKGRFTISRDNAKNSLYLQMNSLRAEDTALYYCARERPMDYWGQGTLVTVSS
VL: DIQMTQSPSTLSASVGDRVTITCKASQDVGTAVAWYQQKPGKAPKLLIYWASTRHTGVPDRFSGSGSGTDFTLTISSLQAEDFAVYFCHQHSSNPLTFGQGTKLEIK
notes: Redesigned variant; cloned into the appropriate expression vector (IgG4v1 and kappa were used in the first round); also called VH7/VκK7
B2: VH6/Vκ6 (antibody, V domains shown)
VH: B1 VH with T40A, E42G
VL: B1 VL with Q3V, T10F, S63T, A80S
notes: Redesigned variant; cloned into the appropriate expression vector (IgG4v1 and kappa were used in the first round)
B3: VH4/Vκ7 (antibody, V domains shown)
VH: B1 VH with T40A, E42G, N84S, A88S, L110S
VL: B1 VL
notes: as for B2
B4: VH0/Vκ3 (antibody, V domains shown)
VH: B1 VH with G10A, R19K, S78T, N84S, A88S, L110S
VL: B1 VL with K42Q, A43P
notes: constant regions not restated, the humanisation used IgG4v1 heavy chain and kappa light chain vectors
B5: VH7/Vκ0 (antibody, V domains shown)
VH: B1 VH
VL: DIVMTQSHKFMSTSVGDRVSITCKASQDVGTAVAWYQQKPGQSPKLLIYWASTRHTGVPDRFTGSGSGTDFTLTITNVQSEDLAVYFCHQHSSNPLTFGAGTKLELK
notes: Control antibody of the redesign round; cloned into the appropriate expression vector (IgG4v1 and kappa were used in the first round), HEK EBNA supernatant
B6: VH5/Vκ0 (antibody, V domains shown)
VH: B1 VH with N84S, A88S, L110S
VL: B5 VL
notes: as for B5
B7: VH6/Vκ0 (antibody, V domains shown)
VH: B1 VH with T40A, E42G
VL: B5 VL
notes: as for B5
B8: VH0/Vκ7 (antibody, V domains shown)
VH: B1 VH with G10A, R19K, S78T, N84S, A88S, L110S
VL: B1 VL
notes: as for B5
B9: VH5/Vκ6 (antibody, V domains shown)
VH: B1 VH with N84S, A88S, L110S
VL: B1 VL with Q3V, T10F, S63T, A80S
notes: Redesigned variant; cloned into the appropriate expression vector (IgG4v1 and kappa were used in the first round), HEK EBNA supernatant
B10: VH5/Vκ7 (antibody, V domains shown)
VH: B1 VH with N84S, A88S, L110S
VL: B1 VL
notes: as for B9
B11: VH0/Vκ6 (antibody, V domains shown)
VH: B1 VH with G10A, R19K, S78T, N84S, A88S, L110S
VL: B1 VL with Q3V, T10F, S63T, A80S
notes: as for B5
B12: VH7/Vκ6 (antibody, V domains shown)
VH: B1 VH
VL: B1 VL with Q3V, T10F, S63T, A80S
notes: as for B9
B13: VH1/Vκ0 (control) (antibody, V domains shown)
VH: B1 VH with T40A, E42G, R44G, N84S, A88S, L110S
VL: B5 VL
B14: Anti-factor Bb mouse monoclonal antibody (antibody, V domains shown)
VH: B1 VH with G10A, R19K, S78T, N84S, A88S, L110S
VL: B5 VL
notes: Mouse monoclonal antibody from a hybridoma; also called murine parental antibody; parent anti-factor Bb antibody

The binders below were run against T1, Homo sapiens factor Bb protein (human, UniProt P00751 260-764) (assay: SPR multi-cycle kinetics, IgG on Protein A chip, factor Bb analyte).
T1 construct: Bought from CompTech (A155); also called complement factor Bb; human factor Bb
T1 sequence (P00751 260-764 limits assumed): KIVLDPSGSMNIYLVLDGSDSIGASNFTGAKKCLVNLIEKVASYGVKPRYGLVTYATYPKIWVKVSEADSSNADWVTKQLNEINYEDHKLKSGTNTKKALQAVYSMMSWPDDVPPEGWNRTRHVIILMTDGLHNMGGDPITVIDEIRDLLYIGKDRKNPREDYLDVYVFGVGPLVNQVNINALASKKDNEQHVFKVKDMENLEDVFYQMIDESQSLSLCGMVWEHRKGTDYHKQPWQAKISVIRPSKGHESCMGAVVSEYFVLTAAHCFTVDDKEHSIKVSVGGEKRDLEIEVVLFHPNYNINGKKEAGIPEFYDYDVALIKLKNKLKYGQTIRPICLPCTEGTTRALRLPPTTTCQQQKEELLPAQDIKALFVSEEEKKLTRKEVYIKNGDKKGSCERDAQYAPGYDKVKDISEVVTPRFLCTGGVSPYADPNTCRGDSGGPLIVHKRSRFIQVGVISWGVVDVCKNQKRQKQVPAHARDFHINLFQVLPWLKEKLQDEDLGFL
Procedure: (§1) Antibodies were diluted in running buffer to a final concentration of 0.5 μg/ml. At the start of each cycle, antibodies were loaded onto Fc2, Fc3 and Fc4 of the Protein A chip (GE Healthcare, Little Chalfont, UK). IgGs were captured at a flow rate of 10 μl/min to give an immobilisation level (RL) of ˜63 RU, the theoretical value to obtain an Rmax of ˜50 RU. The surface was then allowed to stabilize. Kinetic data was obtained with factor Bb as analyte and using a flow rate of 30 μl/min to minimize any potential mass transfer effects. Multiple repeats of a blank and a repeat of a single concentration of the analyte were programmed into the kinetic run in order to check the stability of both the surface and analyte over the kinetic cycles. For kinetic analysis, a two-fold dilution range was selected from 12. 5 nM to 0. 391 nM factor Bb. The association phase of factor Bb was monitored for 360 seconds and the dissociation phase was monitored for 600 seconds. Regeneration of the Protein A surface was conducted using two injections of 10 mM glycine-HCL pH 1. 5. The signal from the reference channel Fc1 was subtracted from that of Fc2, Fc3 and Fc4 to correct for differences in non-specific binding to a reference surface, and a global Rmax parameter was used in the 1-to-1 binding model.
(§2) The sensorgrams and fitted data for the binding of chimeric antibodies and humanized variants to factor Bb are shown in FIGS. 4A-4C. The relative KD was calculated by dividing the KD of the humanized variants by that of the chimeric antibody on the same chip. The kinetic parameters measured for the interaction of factor Bb with chimeric antibodies and humanized variants are shown in Table 10.
B1 showed a Kd of 9.51 nM, a koff of 0.00211 s⁻¹ and a kon of 222000 M⁻¹ s⁻¹. In the case of B2, the Kd is reported as 5.17 nM, the koff is reported as 0.0013 s⁻¹ and the kon is reported as 251000 M⁻¹ s⁻¹. B3 was tested, and the Kd was 2.61 nM, the koff was 0.000841 s⁻¹ and the kon was 322000 M⁻¹ s⁻¹.

Each binder was assayed against T1, Homo sapiens factor Bb protein (assay: cell-based or functional assay).
With B1 the “AP Assay IC50” value was 25 nM. For B2, the “AP Assay IC50” value was 19 nM. In the case of B3, the “AP Assay IC50” value is reported as 23 nM.

The binders below were run against T1, Homo sapiens factor Bb protein (assay: SPR single cycle kinetics, IgG on Protein A chip, factor Bb analyte).
Procedure: (§3) In order to assess the binding of all humanized variants, single cycle kinetic analysis was performed on supernatants from transfected cell cultures. […] All single cycle kinetic experiments were run at 25° C. with HBS-P+running buffer (pH 7. 4) (GE Healthcare, Little Chalfont, UK).
(§4) Antibodies were diluted in running buffer to a final concentration of 1 μg/ml, based on concentrations assessed by ELISA titer. At the start of each cycle, antibodies were loaded onto Fc2, Fc3 and Fc4 of the Protein A chip (GE Healthcare, Little Chalfont, UK). IgGs were captured at a flow rate of 10 μl/min to give an immobilization level (RL) of ˜63 RU, the theoretical value to obtain an Rmax of ˜50 RU. The surface was then allowed to stabilize. Single cycle kinetic data was obtained with factor Bb (CompTech, Tyler, USA) as the analyte at a flow rate of 30 μl/min to minimize any potential mass transport limitations. Multiple repeats with the reference chimeric antibody were performed to check the stability of the surface and analyte over the kinetic cycles. The signal from the reference channel Fc1 (no antibody) was subtracted from that of Fc2, Fc3 and Fc4 to correct for differences in non-specific binding to a reference surface. A four point, two-fold dilution range from 0. 78 nM to 6. 25 nM factor Bb without regeneration between each concentration was used. The association phase for the four injections of increasing concentrations of factor Bb was monitored for 200 seconds each time and a single dissociation phase was measured for 200 seconds following the last injection of factor Bb. Regeneration of the Protein A surface was conducted using two injections of 10 mM glycine-HCL pH 1. 5.
Single cycle kinetics using cell culture supernatants were performed as described above.
With B4 the Kd was 2.27 nM, the koff was 0.00128 s⁻¹ and the kon was 563000 M⁻¹ s⁻¹. In the case of B5, the Kd is reported as 7.53 nM, the koff is reported as 0.00207 s⁻¹ and the kon is reported as 274000 M⁻¹ s⁻¹. B6 was tested, and the Kd was 416 nM, the koff was 0.00145 s⁻¹ and the kon was 3490 M⁻¹ s⁻¹. B7 gave a Kd of 3.29 nM, a koff of 0.00197 s⁻¹ and a kon of 598000 M⁻¹ s⁻¹. With B8 the Kd was 2.11 nM, the koff was 0.00105 s⁻¹ and the kon was 496000 M⁻¹ s⁻¹. B1 gave a Kd of 2.42 nM, a koff of 0.0117 s⁻¹ and a kon of 4.83e+06 M⁻¹ s⁻¹. In the case of B2, the Kd is reported as 3.84 nM, the koff is reported as 0.00158 s⁻¹ and the kon is reported as 412000 M⁻¹ s⁻¹. B9 gave a Kd of 130 nM, a koff of 0.0173 s⁻¹ and a kon of 133000 M⁻¹ s⁻¹. Binder B10 has a Kd of 521 nM, a koff of 0.00166 s⁻¹ and a kon of 3200 M⁻¹ s⁻¹. B11 was tested, and the Kd was 2.37 nM, the koff was 0.00126 s⁻¹ and the kon was 534000 M⁻¹ s⁻¹. With B12 the Kd was 18 nM, the koff was 0.00303 s⁻¹ and the kon was 168000 M⁻¹ s⁻¹. Binder B3 has a Kd of 2.34 nM, a koff of 0.000903 s⁻¹ and a kon of 386000 M⁻¹ s⁻¹.

Target: T1, Homo sapiens factor Bb protein
Test: as above
Remark: another data set of the same source
Procedure: as §3, §4
(§5) The sensorgrams and fitted data for the single cycle kinetics are shown in FIGS. 1A-1D and the kinetic parameters measured for the interaction of factor Bb with each antibody are shown in Table 7. The relative KD was calculated by dividing the KD of the VH0/Vκ0 reference antibody by that of the humanized variant assayed in the same experiment.
With B13 the Kd was 3.09 nM, the koff was 0.00116 s⁻¹ and the kon was 376000 M⁻¹ s⁻¹.

What follows are binders tested against T1, Homo sapiens factor Bb protein (assay: SPR single cycle kinetics; ratio against VH0/Vκ0).
Procedure: as §3, §4, §5
With B13 the “Relative KD” value was 1.76.

The binders below were run against T1, Homo sapiens factor Bb protein (assay: SPR multi-cycle kinetics; ratio against VH0/Vκ0 on the same chip).
Procedure: as §1, §2
In the case of B1, the “Relative KD” value is reported as 5.01. In the case of B2, the “Relative KD” value is reported as 2.71. With B3 the “Relative KD” value was 1.31.

These binders were tested against T1, Homo sapiens factor Bb protein (assay: competition ELISA on coated factor Bb; competitor murine parental antibody).
Procedure: Factor Bb was diluted in 1× PBS to 1.0 μg/ml and 100 μl/well was coated overnight at 4° C. on a 96-well ELISA plate. The following day the plates were blocked for two hours at room temperature with 1% casein/PBS before washing 2× with PBS pH 7.4. In a 96-well dilution plate a fixed concentration of murine parental antibody (0.5 μg/ml, final concentration) was added in equal volume to a four-fold titration series of test antibody (starting from 45 μg/ml to 0.01 μg/ml, final concentration) diluted in blocking buffer. After washing the plate 3× with PBS-T, 100 μl of chimeric/test antibody mix was added to the ELISA plate. After incubating at room temperature for one hour, the plate was washed 3× with PBS-T and 100 μl of anti-mouse IgG Fc-Specific HRP (Sigma, Dorset, UK) diluted 1:1000 in PBS-T was applied for one hour at room temperature to detect bound mouse antibody. For color development, the plate was washed 3× with PBS-T following which 100 μl of TMB substrate was added and incubated for approximately five minutes at room temperature. The reaction was stopped with 50 μl of 3.0 M hydrochloric acid and absorbance was read immediately using a DYNEX ® plate reader at 450 nm.
IC50 values were calculated for each variant and relative IC50 values were calculated by dividing the IC50 of the humanized variant by that of the chimeric antibody assayed on the same plate (Table 11).
Work on B1 yielded an IC50 of 1.43 nM. Work on B2 yielded an IC50 of 0.93 nM. B3 showed an IC50 of 0.75 nM.

Target: T1, Homo sapiens factor Bb protein
Test: SPR single cycle kinetics; ratio against VH0/Vκ0
Remark: another data set of the same source
Procedure: All single cycle kinetic experiments were run at 25° C. with HBS-P+running buffer (pH 7. 4) (GE Healthcare, Little Chalfont, UK).
as §4
Single cycle kinetics using cell culture supernatants were performed as described above. […] The relative KD was calculated by dividing the KD of the VH0/Vκ0 reference antibody by that of the humanized variant assayed in the same experiment.
With B4 the “Relative KD” value was 1.28. In the case of B5, the “Relative KD” value is reported as 4.25. In the case of B6, the “Relative KD” value is reported as 235. B7 was tested, and the “Relative KD” value was 1.86. For B8, the “Relative KD” value was 1.19. With B1 the “Relative KD” value was 1.37. For B2, the “Relative KD” value was 2.17. In the case of B9, the “Relative KD” value is reported as 73.5. For B10, the “Relative KD” value was 294. B11 was tested, and the “Relative KD” value was 1.34. For B12, the “Relative KD” value was 10.2. With B3 the “Relative KD” value was 1.32.

These binders were tested against T1, Homo sapiens factor Bb protein (assay: BLI Octet, biotinylated antibody on SA biosensors).
Procedure: Briefly, biotinylated antibodies were loaded onto SA Biosensors equilibrated in PBS, 0.1% BSA, 0.02% Tween-20 (assay buffer). After a 60 second baseline in assay buffer, antibodies were loaded onto the probes for 180 seconds, followed by another 60 second baseline. Association to human (Comptech) or cynomolgus monkey factor Bb (purified in-house) was measured for 300 seconds, followed by a 300 second dissociation. Kinetic parameters were calculated by the Octet Analysis software using a 1:1 binding model.
B14 showed a Kd of 1.9 nM. B1 gave a Kd of 2.9 nM. For B2, the Kd was 1.9 nM. Work on B3 yielded a Kd of 1.9 nM.
